According to article PMC3210814:
Residue numbers refer to the chain shown, from its start. Names may count otherwise.

Experiments:
[1] = molecular target: bovine pancreatic trypsin (bovine); experiment: enzyme inhibition assay (chromogenic substrate), Lineweaver-Burk plots and replot of the slopes; trypsin 400 nM pre-incubated with the inhibitor for 30 min; 100 mM Tris-HCl pH 8.0, 10 mM CaCl2, 25°C; substrate Nα-benzoyl-L-arginine 4-nitroanilide 0.1 to 0.8 mM; p-nitroaniline read at 405 nm for 5 min
Chain of bovine pancreatic trypsin (bovine) (P00760 24-246): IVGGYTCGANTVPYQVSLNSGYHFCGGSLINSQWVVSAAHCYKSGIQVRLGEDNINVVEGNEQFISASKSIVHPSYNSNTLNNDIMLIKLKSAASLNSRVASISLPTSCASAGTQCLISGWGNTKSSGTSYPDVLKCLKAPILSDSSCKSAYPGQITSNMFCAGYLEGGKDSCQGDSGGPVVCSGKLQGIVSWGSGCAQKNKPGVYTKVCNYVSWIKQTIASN

[2] = molecular target: bovine pancreatic trypsin (bovine); experiment: enzyme inhibition assay (chromogenic substrate), inhibition against inhibitor concentration; trypsin 400 nM incubated with 0 to 400 nM rSdPI for 30 min; 100 mM Tris-HCl pH 8.0, 10 mM CaCl2, 25°C

B1: recombinant SdPI peptide (scorpion-derived protease inhibitor), wild type (peptide)
chain: KNKCQLPSDVGKGKASFTRYYYNEEGGKCETFIYGGVGGNSNNFLTKEDCCRECAQGSC
In the case of B1, the Ki [1] is reported as 160 nM and the stoichiometry N [2] is reported as 1.

B2: SdPI K12A mutant (peptide)
chain: B1 chain with K12A
B2 was tested, and the Ki [1] was 290 nM.

B3: SdPI Ala15Phe mutant (peptide)
chain: B1 chain with A15F
B3 was tested, and the Ki [1] was 62000 nM.

B4: SdPI G13F mutant (peptide)
chain: B1 chain with G13F
Work on B4 yielded a Ki [1] of 260 nM.
